Assay results as given in patent publication US20210196796A1 (SYNTHEKINE, published 2021).

T1: orthogonal hCD122 receptor (hoRb), hCD122 with H133D and Y134F (human, UniProt P14784 27-550)
T1 sequence: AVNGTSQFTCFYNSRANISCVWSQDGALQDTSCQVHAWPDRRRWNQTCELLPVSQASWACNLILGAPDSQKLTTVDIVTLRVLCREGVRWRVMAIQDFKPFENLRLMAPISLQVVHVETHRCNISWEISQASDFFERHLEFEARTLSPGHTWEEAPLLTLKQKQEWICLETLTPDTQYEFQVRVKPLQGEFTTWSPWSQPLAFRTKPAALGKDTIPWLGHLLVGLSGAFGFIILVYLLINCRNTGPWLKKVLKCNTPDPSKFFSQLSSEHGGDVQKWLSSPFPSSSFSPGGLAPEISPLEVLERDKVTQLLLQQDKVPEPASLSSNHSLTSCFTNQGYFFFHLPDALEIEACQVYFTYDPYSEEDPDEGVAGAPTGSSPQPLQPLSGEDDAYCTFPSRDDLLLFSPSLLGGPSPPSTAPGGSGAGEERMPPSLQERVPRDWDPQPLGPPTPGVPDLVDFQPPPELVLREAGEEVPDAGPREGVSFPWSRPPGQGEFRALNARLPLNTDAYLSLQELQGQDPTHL

B1: T3D, SQVLKA (ligand)
chain: APDSSSTKKTQLQLSQLLVLLKAILNGINNYKNPKLTRMLTFKFYMPKKATELKHLQCLEEELKPLEEVLNLAQSKNFHLRPRDLISNINVIVLELKGSETTFMCEYADETATIVEFLNRWITFCQSIISTLT
B2: T3P, SQVLKA (ligand)
chain: APPSSSTKKTQLQLSQLLVLLKAILNGINNYKNPKLTRMLTFKFYMPKKATELKHLQCLEEELKPLEEVLNLAQSKNFHLRPRDLISNINVIVLELKGSETTFMCEYADETATIVEFLNRWITFCQSIISTLT
B3: T3R, SQVLKA (ligand)
chain: APRSSSTKKTQLQLSQLLVLLKAILNGINNYKNPKLTRMLTFKFYMPKKATELKHLQCLEEELKPLEEVLNLAQSKNFHLRPRDLISNINVIVLELKGSETTFMCEYADETATIVEFLNRWITFCQSIISTLT
B4: T3K, SQVLKA (ligand)
chain: APKSSSTKKTQLQLSQLLVLLKAILNGINNYKNPKLTRMLTFKFYMPKKATELKHLQCLEEELKPLEEVLNLAQSKNFHLRPRDLISNINVIVLELKGSETTFMCEYADETATIVEFLNRWITFCQSIISTLT

Tests used:
[1] = biological target: T1, orthogonal hCD122 receptor (hoRb), …; experiment: cell-based or functional assay
[2] = biological target: T1, orthogonal hCD122 receptor (hoRb), …; experiment: cell-based or functional assay; remark: listed apart in the source
Wherever Relative Proliferation Fold Change 3F8 1:10 is given: reference of the scale not given here.
Wherever Relative Proliferation Fold Change 3F8 1:2 is given: reference of the scale not given here.
Wherever Relative Proliferation Fold Change 3F8 1:50 is given: reference of the scale not given here.
Wherever Relative Proliferation Fold Change NKL 1:10 is given: reference of the scale not given here.
Wherever Relative Proliferation Fold Change NKL 1:2 is given: reference of the scale not given here.
Wherever Relative Proliferation Fold Change NKL 1:50 is given: reference of the scale not given here.

Binder | NKL Ortho Proliferation Signal 1:2 [1] | NKL Ortho Proliferation Signal 1:10 [1] | NKL Ortho Proliferation Signal 1:50 [1] | Relative Proliferation Fold Change NKL 1:2 [1] [fold] | Relative Proliferation Fold Change NKL 1:10 [1] [fold] | Relative Proliferation Fold Change NKL 1:50 [1] [fold] | 3F8 Ortho Proliferation Signal 1:2 [2] [cts/min] | 3F8 Ortho Proliferation Signal 1:10 [2] [cts/min] | 3F8 Ortho Proliferation Signal 1:50 [2] [cts/min] | Relative Proliferation Fold Change 3F8 1:2 [2] [fold] | Relative Proliferation Fold Change 3F8 1:10 [2] [fold] | Relative Proliferation Fold Change 3F8 1:50 [2] [fold]
B1 | 49800 | 53900 | 27900 | 4.09 | 4.03 | 2.34 | 33400 | 35000 | 13400 | 35.1 | 18.6 | 19
B2 | 55400 | 56900 | 32700 | 6.03 | 4.91 | 2.9 | 36500 | 39700 | 19000 | 33.9 | 42.8 | 38.5
B3 | 58400 | 40700 | 19300 | 4.15 | 2.9 | 1.45 | 28900 | 16800 | 5980 | 8.43 | 13.3 | 5.3
B4 | 42900 | 35500 | 18400 | 3.47 | 2.47 | 1.38 | 28900 | 15100 | 7150 | 50.9 | 7.35 | 9.24
